Test results: patent US20220380409A1 (published 2022)
Ends that are not written are not given here.

B1: binary ligand hevwh-YLGHK (peptide)
peptide 1: HEVWH
peptide 2: YLGHK
modifications: not fully specified (bridges)
B2: RCM cyclized version of the HWSAN (SEQ ID NO:11) peptide (peptide)
peptide: HWSAN
modifications: staple (positions not given here); also: RCM ring between olefin-bearing non-natural residues, places not given here, biotinylated

Key:
GST-PfLDH [1] = target: T1, GST-PfLDH (UniProt Q27743 2-316); assay: sandwich ELISA
GST-PvLDH = GST-PvLDH (UniProt P84793 1-313); assay: sandwich ELISA
PfLDH protein = PfLDH protein (UniProt Q27743 2-316)
GST-PfLDH [2] = target: T1, GST-PfLDH; assay: ELISA

Binder | EC50 (GST-PfLDH [1]) | EC50 (GST-PvLDH) | Kd (PfLDH protein) | EC50 (GST-PfLDH [2])
B1 | 15.1 nM | 12 nM | ~10 nM | –
B2 | – | – | – | 2.57 nM
